Measured values as given in US20250009896A1, “SUPR[…] BASED VIRAL […] CAPTURE FOR PREVENTION AND THERAPY OF VIRAL INFECTION” (The Johns Hopkins University, priority 2023, published 2025).

B1: ACE2-docking supramolecular filaments (20:1 molar ratio of Filler to Ligand), without ACE2 (peptide)
peptide 1: VVVGEE
peptide 2: VVVGKKGGGDYSHCSPLRYYPWWKCTYPDPEGGG
modifications: not checked

What was measured:
[1] = molecular target: T1, Recombinant human angiotensin-converting enzyme 2 (ACE2) protein, carrier-free (R&D Systems) (human), Q9BYF1
T1 sequence (Q9BYF1 18-740 limits assumed): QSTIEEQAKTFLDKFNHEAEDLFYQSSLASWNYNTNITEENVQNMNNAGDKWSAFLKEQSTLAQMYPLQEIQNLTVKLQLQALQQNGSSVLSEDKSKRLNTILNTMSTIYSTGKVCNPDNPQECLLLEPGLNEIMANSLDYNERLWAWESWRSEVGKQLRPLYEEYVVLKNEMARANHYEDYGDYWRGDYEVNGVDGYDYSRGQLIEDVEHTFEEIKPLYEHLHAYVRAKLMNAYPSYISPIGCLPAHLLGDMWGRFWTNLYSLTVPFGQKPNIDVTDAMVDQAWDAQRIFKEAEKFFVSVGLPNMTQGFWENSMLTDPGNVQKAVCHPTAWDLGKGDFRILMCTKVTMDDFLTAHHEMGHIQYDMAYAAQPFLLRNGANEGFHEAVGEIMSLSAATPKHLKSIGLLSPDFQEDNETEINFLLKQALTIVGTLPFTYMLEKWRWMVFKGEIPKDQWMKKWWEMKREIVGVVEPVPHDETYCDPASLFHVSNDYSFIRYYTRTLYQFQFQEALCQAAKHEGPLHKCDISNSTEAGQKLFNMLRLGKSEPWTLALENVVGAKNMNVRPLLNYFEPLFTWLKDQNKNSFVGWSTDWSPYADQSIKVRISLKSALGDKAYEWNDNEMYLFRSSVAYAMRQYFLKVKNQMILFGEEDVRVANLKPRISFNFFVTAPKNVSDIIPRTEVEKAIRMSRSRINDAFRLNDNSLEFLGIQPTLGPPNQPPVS

[2] = molecular target: T1, Recombinant human …; assay: cell-based or functional assay
[3] = molecular target: T1, Recombinant human …; assay: calculated reference value for the zeta potential of the mixture
[4] = molecular target: T1, Recombinant human …; remark: listed apart in the source

| Binder | zeta potential of the 20:1 filaments after addition of ACE2 (bar '20:1+ACE2'); the sheet prints -31.9 for '20:1' without ACE2 (** between the two) and -29.4 for 'Filler' alone [1] [mV] | ACE2 enzymatic inhibition at 0 min incubation [2] [%] | inhibition of added ACE2 (initial velocity relative to free ACE2) [2] [%] | intensity-averaged zeta potential calculated assuming no interaction [3] [mV] | zeta potential of the mixture, measured [4] [mV] |
| --- | --- | --- | --- | --- | --- |
| B1 | -36.7 | 83 | 93 | – | – |
| VVVGKKGGGDYSHCSPLRYYPWWKCTYPDPEGGG (modifications not checked) [ACE2-binding Ligand peptide amphiphile (C12-VVVGKK-GG-OEG4-DX600)] | – | – | – | -17.6 | -25.1 |
